Key:
murine PD-1 on CHO cells = target: T1, murine PD-1 on CHO cells (mouse, UniProt Q02242 25-288); assay: flow cytometry on CHO cells with murine PD-1
T1 sequence: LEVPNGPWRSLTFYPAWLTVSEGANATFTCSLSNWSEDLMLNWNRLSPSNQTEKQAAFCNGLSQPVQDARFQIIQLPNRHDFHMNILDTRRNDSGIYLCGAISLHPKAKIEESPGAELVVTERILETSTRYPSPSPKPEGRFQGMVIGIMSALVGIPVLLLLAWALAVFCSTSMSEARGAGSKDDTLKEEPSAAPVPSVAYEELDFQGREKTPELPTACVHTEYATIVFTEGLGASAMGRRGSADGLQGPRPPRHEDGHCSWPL
Method: (§1) Cells are then washed 3×, and are incubated with a secondary antibody (PE-labelled, at final concentration of 5 μg/ml) in PBS 1% BSA for 30 min on ice (protected from light). Cells are washed 3× and analyzed via flow cytometry. Flow cytometry is performed on an Accuri C6 system (BD Biosciences) and MFIs are calculated on the C6 software. EC50 s are calculated on Graphpad software.

[1] = target: T2, human PD-1 on cells (CHO cells; T cells in the mixed lymphocyte reaction) (human, UniProt Q15116 25-288); assay: flow cytometry on CHO cells with human PD-1 (n=1)
T2 construct: also called human PD-1 on CHO cells
Method: as §1

human PD-1_HIS = target: T3, human PD-1_HIS (human, UniProt Q15116 25-167, limits assumed); assay: bio-layer interferometry (ForteBio), human PD-1_HIS in solution, IgG on sensor tip
T3 construct: not shown: His tag
Method: Briefly, ForteBio affinity measurements were performed by loading IgGs online onto AHQ sensors. Sensors were equilibrated off-line in assay buffer for 30 min and then monitored on-line for 60 seconds for baseline establishment. Sensors with loaded IgGs were exposed to 100 nM antigen for 5 min, afterwards they were transferred to assay buffer for 5 min for off-rate measurement. Kinetics was analyzed using the 1:1 binding model.

[2] = target: T4, human PD-1 (soluble antigen of the MSD assay, b-PD-1 monomer) (human, UniProt Q15116 25-170, limits assumed, biotinylated (b-PD-1), site not stated); assay: MSD solution equilibrium titration, avid KD
T4 construct: The antigen format of the 'avid' measurement is not described
Method: (§2) Equilibrium affinity measurements are performed as previously described (Estep, P., et al., MAbs, 2013. 5(2): p. 270-8). Solution equilibrium titrations (SET) are performed in PBS+0.1% IgG-Free BSA (PBSF) where antigen (b-PD-1 monomer) is held constant at 10-100 pM and is incubated with 3- to 5-fold serial dilutions of Fab or mAbs starting at 5-100 nM (experimental condition is sample dependent). Antibodies diluted at 20 nM in PBS are coated onto standard bind MSD-ECL plates overnight at 4° C. or at room temperature for 30 min. Plates are blocked with BSA for 30 min whilst shaking at 700 rpm. Plates are then washed 3× with wash buffer (PBSF+0.05% Tween 20). SET samples are applied and incubated on the plates for 150 s with shaking at 700 rpm followed by one wash. Antigen captured on a plate is detected with 250 ng/mL sulfotag-labeled streptavidin in PBSF by incubation on the plate for 3 min. The plates are washed three times with wash buffer and are then read on the MSD Sector Imager 2400 instrument using 1× Read Buffer T with surfactant. The percent free antigen is plotted as a function of titrated antibody in Prism and fit to a quadratic equation to extract the KD. To improve throughput, liquid handling robots are used throughout MSD-SET experiments, including for SET sample preparation.

[3] = target: T5, murine PD-1 (soluble antigen of the MSD assay) (mouse, UniProt Q02242 25-169, limits assumed); assay: MSD solution equilibrium titration, avid KD
T5 construct: also called mouse PD-1
T5 sequence: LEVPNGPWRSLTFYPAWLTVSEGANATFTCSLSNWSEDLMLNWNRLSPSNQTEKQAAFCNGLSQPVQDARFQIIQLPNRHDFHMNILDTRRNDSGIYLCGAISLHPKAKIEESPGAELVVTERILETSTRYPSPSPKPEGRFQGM
Method: as §2

[4] = target: T2, human PD-1 on cells (CHO cells; T cells …); assay: cell-based or functional assay
[5] = target: T2, human PD-1 on cells (CHO cells; T cells …); assay: flow cytometry, remaining PD-L2-FITC signal after 100 nM antibody; competitor PD-L2-FITC
Method: CHO cells 0.2×10⁶ are incubated with the experimental antibody (100 nM) for 30 min in PBS 1% BSA on ice. […] Cells are washed 3× and analyzed via flow cytometry. Flow cytometry is performed on an Accuri C6 system (BD Biosciences) and MFIs are calculated on the C6 software. EC50 s are calculated on Graphpad software.

[6] = target: T4, human PD-1 (soluble antigen of the MSD …); assay: MSD solution equilibrium titration, monovalent KD
Method: as §2

[7] = target: T5, murine PD-1 (soluble antigen of the MSD …); assay: MSD solution equilibrium titration, monovalent KD
Method: as §2

[8] = target: T2, human PD-1 on cells (CHO cells; T cells …); assay: cell-based or functional assay; remark: listed apart in the source

T2 sequence (Q15116 25-288 limits assumed): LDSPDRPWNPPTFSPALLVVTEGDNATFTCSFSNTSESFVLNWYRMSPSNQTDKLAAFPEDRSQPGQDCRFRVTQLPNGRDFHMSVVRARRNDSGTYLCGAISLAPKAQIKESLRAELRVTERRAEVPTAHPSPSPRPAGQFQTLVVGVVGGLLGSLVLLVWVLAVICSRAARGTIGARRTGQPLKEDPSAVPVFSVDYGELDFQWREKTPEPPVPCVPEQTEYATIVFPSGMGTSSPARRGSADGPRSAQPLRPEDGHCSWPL
T4 sequence (Q15116 25-170 limits assumed): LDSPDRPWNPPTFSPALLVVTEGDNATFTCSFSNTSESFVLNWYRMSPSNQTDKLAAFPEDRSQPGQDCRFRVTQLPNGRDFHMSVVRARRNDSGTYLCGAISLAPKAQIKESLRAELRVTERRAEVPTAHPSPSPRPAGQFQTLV
T3 sequence (Q15116 25-167 limits assumed): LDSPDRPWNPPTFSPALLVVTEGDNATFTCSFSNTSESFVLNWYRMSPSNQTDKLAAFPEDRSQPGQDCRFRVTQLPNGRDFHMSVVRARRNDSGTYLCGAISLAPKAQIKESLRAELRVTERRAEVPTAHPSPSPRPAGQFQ

EC50 (murine PD-1 on CHO cells): 5.04 nM
EC50 [1]: 4.59 nM
Kd (human PD-1_HIS): 1.2 nM
Kd [2]: 0.022 nM
Kd [3]: 0.33 nM
IL-2 in supernatant, 0.01 nM IgG [4]: 580 pg/mL
IL-2 in supernatant, 0.1 nM IgG [4]: 614 pg/mL
IL-2 in supernatant, 1 nM IgG [4]: 978 pg/mL
IL-2 in supernatant, 10 nM IgG [4]: 1360 pg/mL
IL-2 in supernatant, 100 nM IgG [4]: 1980 pg/mL
IL-2 secretion fold change vs. IgG control, 0.01 nM IgG [4]: 1.13 fold
IL-2 secretion fold change vs. IgG control, 0.1 nM IgG [4]: 1.21 fold
IL-2 secretion fold change vs. IgG control, 1 nM IgG [4]: 1.95 fold
IL-2 secretion fold change vs. IgG control, 10 nM IgG [4]: 2.61 fold
IL-2 secretion fold change vs. IgG control, 100 nM IgG [4]: 3.2 fold
MFI (PD-L2-FITC) [5]: 38700 MFI
Kd [6]: 0.091 nM
Kd [7]: 1.1 nM
IFNg secretion fold change vs. IgG control, 0.01 nM IgG [8]: 0.96 fold
IFNg secretion fold change vs. IgG control, 0.1 nM IgG [8]: 1.26 fold
IFNg secretion fold change vs. IgG control, 1 nM IgG [8]: 1.86 fold
IFNg secretion fold change vs. IgG control, 10 nM IgG [8]: 2.01 fold
IFNg secretion fold change vs. IgG control, 100 nM IgG [8]: 1.76 fold
IFNγ in supernatant, 0.01 nM IgG [8]: 14300 pg/mL
IFNγ in supernatant, 0.1 nM IgG [8]: 13800 pg/mL
IFNγ in supernatant, 1 nM IgG [8]: 21600 pg/mL
IFNγ in supernatant, 10 nM IgG [8]: 27100 pg/mL
IFNγ in supernatant, 100 nM IgG [8]: 26300 pg/mL
B1: Antibody E, IgG1 format expressed in yeast (antibody, V domains shown)
VH: QVQLVQSGAEVKKPGASVKVSCKASGYTFTSNYMHWVRQAPGQGLEWMGIINPSEGSTGYAQKFQGRVTMTRDTSTSTVYMELSSLRSEDTAVYYCAKEGVADGYGLVDVWGQGTMVTVSS
VL: EIVLTQSPATLSLSPGERATLSCRASQSVSSYLAWYQQKPGQAPRLLIYDASKRATGIPARFSGSGSGTDFTLTISSLEPEDFAVYYCDQRNNWPLTFGGGTKVEIK
notes: Tested in IgG1 format, expressed in yeast
